Laboratory results reported in US20160272683A1 (Novo Nordisk, published 2016).
Blank lines part the entries; values can stand above or below the binder they belong to. Numbered stars: 1 amine (or outer) side, 2 acyl side, 3 side chain; on linkers, the order of the positions; unused ones are H or OH. * marks the point of attachment. C20 diacid = O=C(O)CCCCCCCCCCCCCCCCCCC(=O)*; γGlu = O=C(O)[C@H](CCC(=O)[*:2])N[*:1]

Target: T1, human calcitonin receptor (human, UniProt P30988 25-474)
T1 construct: whole, on cells; also called hCT-R; hCTR
T1 sequence (looked up): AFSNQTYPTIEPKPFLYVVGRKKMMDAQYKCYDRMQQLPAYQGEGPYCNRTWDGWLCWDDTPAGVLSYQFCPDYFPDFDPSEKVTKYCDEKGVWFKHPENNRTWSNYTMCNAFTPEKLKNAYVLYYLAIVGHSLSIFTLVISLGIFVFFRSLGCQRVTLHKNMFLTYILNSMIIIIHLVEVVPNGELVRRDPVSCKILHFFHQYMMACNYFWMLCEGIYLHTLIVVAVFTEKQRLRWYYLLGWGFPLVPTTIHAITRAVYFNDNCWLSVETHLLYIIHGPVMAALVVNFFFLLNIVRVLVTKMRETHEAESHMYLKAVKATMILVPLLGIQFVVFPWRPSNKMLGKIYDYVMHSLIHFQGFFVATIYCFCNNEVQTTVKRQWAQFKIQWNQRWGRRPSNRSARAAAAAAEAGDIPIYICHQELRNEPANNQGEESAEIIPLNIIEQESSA
Test: whole-cell competition vs 125I-human calcitonin (Assay VIIa)
Procedure, shortened: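 BHK tk'ts 13 cells stably co-expressing human calcitonin receptor and a CRE-luciferase reporter, seeded overnight at 37 °C. Bound tracer counted by scintillation after cold HBSS washes and NaOH/SDS lysis; IC₅₀ from one-site competition fit taken as receptor affinity.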

B1: [N-terminal(C20 diacid), des1, 4G, 15Q, 21Q, 23Y, 30S, 31G, 32T, 33Y]mimylin (peptide)
peptide: {C20 diacid}-ASGLSTAALGRLSQELHELQTYPRTETGSGTY-NH2
SMILES: CC(C)C[C@H](NC(=O)CNC(=O)[C@H](CO)NC(=O)[C@H](C)NC(=O)CCCCCCCCCCCCCCCCCCC(=O)O)C(=O)N[C@@H](CO)C(=O)N[C@H](C(=O)N[C@@H](C)C(=O)N[C@@H](C)C(=O)N[C@@H](CC(C)C)C(=O)NCC(=O)N[C@@H](CCCNC(=N)N)C(=O)N[C@@H](CC(C)C)C(=O)N[C@@H](CO)C(=O)N[C@@H](CCC(N)=O)C(=O)N[C@@H](CCC(=O)O)C(=O)N[C@@H](CC(C)C)C(=O)N[C@@H](Cc1c[nH]cn1)C(=O)N[C@@H](CCC(=O)O)C(=O)N[C@@H](CC(C)C)C(=O)N[C@@H](CCC(N)=O)C(=O)N[C@H](C(=O)N[C@@H](Cc1ccc(O)cc1)C(=O)N1CCC[C@H]1C(=O)N[C@@H](CCCNC(=N)N)C(=O)N[C@H](C(=O)N[C@@H](CCC(=O)O)C(=O)N[C@H](C(=O)NCC(=O)N[C@@H](CO)C(=O)NCC(=O)N[C@H](C(=O)N[C@@H](Cc1ccc(O)cc1)C(N)=O)[C@@H](C)O)[C@@H](C)O)[C@@H](C)O)[C@@H](C)O)[C@@H](C)O
IC50: 0.747 nM

B2: [N-terminal(C20 diacid-gGlu), des1, 4G, 8L, 9V, 15Q, 21Q, 23Y, 30S, 31Q, 32T, 33Y]mimylin (peptide)
peptide: {C20 diacid-γGlu}-ASGLSTLVLGRLSQELHELQTYPRTETGSQTY-NH2
SMILES: CC(C)C[C@H](NC(=O)CNC(=O)[C@H](CO)NC(=O)[C@H](C)NC(=O)CC[C@H](NC(=O)CCCCCCCCCCCCCCCCCCC(=O)O)C(=O)O)C(=O)N[C@@H](CO)C(=O)N[C@H](C(=O)N[C@@H](CC(C)C)C(=O)N[C@H](C(=O)N[C@@H](CC(C)C)C(=O)NCC(=O)N[C@@H](CCCNC(=N)N)C(=O)N[C@@H](CC(C)C)C(=O)N[C@@H](CO)C(=O)N[C@@H](CCC(N)=O)C(=O)N[C@@H](CCC(=O)O)C(=O)N[C@@H](CC(C)C)C(=O)N[C@@H](Cc1c[nH]cn1)C(=O)N[C@@H](CCC(=O)O)C(=O)N[C@@H](CC(C)C)C(=O)N[C@@H](CCC(N)=O)C(=O)N[C@H](C(=O)N[C@@H](Cc1ccc(O)cc1)C(=O)N1CCC[C@H]1C(=O)N[C@@H](CCCNC(=N)N)C(=O)N[C@H](C(=O)N[C@@H](CCC(=O)O)C(=O)N[C@H](C(=O)NCC(=O)N[C@@H](CO)C(=O)N[C@@H](CCC(N)=O)C(=O)N[C@H](C(=O)N[C@@H](Cc1ccc(O)cc1)C(N)=O)[C@@H](C)O)[C@@H](C)O)[C@@H](C)O)[C@@H](C)O)C(C)C)[C@@H](C)O
IC50: 1.83 nM

B3: [N-terminal(C20 diacid-gGlu), des1, 2L, 4G, 9V, 21S, 23Y, 30S, 31G, 32T, 33Y]mimylin (peptide)
peptide: {C20 diacid-γGlu}-LSGLSTAVLGRLSAELHELSTYPRTETGSGTY-NH2
SMILES: CC(C)C[C@H](NC(=O)CC[C@H](NC(=O)CCCCCCCCCCCCCCCCCCC(=O)O)C(=O)O)C(=O)N[C@@H](CO)C(=O)NCC(=O)N[C@@H](CC(C)C)C(=O)N[C@@H](CO)C(=O)N[C@H](C(=O)N[C@@H](C)C(=O)N[C@H](C(=O)N[C@@H](CC(C)C)C(=O)NCC(=O)N[C@@H](CCCNC(=N)N)C(=O)N[C@@H](CC(C)C)C(=O)N[C@@H](CO)C(=O)N[C@@H](C)C(=O)N[C@@H](CCC(=O)O)C(=O)N[C@@H](CC(C)C)C(=O)N[C@@H](Cc1c[nH]cn1)C(=O)N[C@@H](CCC(=O)O)C(=O)N[C@@H](CC(C)C)C(=O)N[C@@H](CO)C(=O)N[C@H](C(=O)N[C@@H](Cc1ccc(O)cc1)C(=O)N1CCC[C@H]1C(=O)N[C@@H](CCCNC(=N)N)C(=O)N[C@H](C(=O)N[C@@H](CCC(=O)O)C(=O)N[C@H](C(=O)NCC(=O)N[C@@H](CO)C(=O)NCC(=O)N[C@H](C(=O)N[C@@H](Cc1ccc(O)cc1)C(N)=O)[C@@H](C)O)[C@@H](C)O)[C@@H](C)O)[C@@H](C)O)C(C)C)[C@@H](C)O
IC50: 5.62 nM

B4: [N-terminal(C20 diacid-gGlu), des1, 4G, 9T, 15Q, 21Q, 23Y, 25P, 30S, 31G, 32T, 33Y]mimylin (peptide)
peptide: {C20 diacid-γGlu}-ASGLSTATLGRLSQELHELQTYPPTETGSGTY-NH2
SMILES: CC(C)C[C@H](NC(=O)CNC(=O)[C@H](CO)NC(=O)[C@H](C)NC(=O)CC[C@H](NC(=O)CCCCCCCCCCCCCCCCCCC(=O)O)C(=O)O)C(=O)N[C@@H](CO)C(=O)N[C@H](C(=O)N[C@@H](C)C(=O)N[C@H](C(=O)N[C@@H](CC(C)C)C(=O)NCC(=O)N[C@@H](CCCNC(=N)N)C(=O)N[C@@H](CC(C)C)C(=O)N[C@@H](CO)C(=O)N[C@@H](CCC(N)=O)C(=O)N[C@@H](CCC(=O)O)C(=O)N[C@@H](CC(C)C)C(=O)N[C@@H](Cc1c[nH]cn1)C(=O)N[C@@H](CCC(=O)O)C(=O)N[C@@H](CC(C)C)C(=O)N[C@@H](CCC(N)=O)C(=O)N[C@H](C(=O)N[C@@H](Cc1ccc(O)cc1)C(=O)N1CCC[C@H]1C(=O)N1CCC[C@H]1C(=O)N[C@H](C(=O)N[C@@H](CCC(=O)O)C(=O)N[C@H](C(=O)NCC(=O)N[C@@H](CO)C(=O)NCC(=O)N[C@H](C(=O)N[C@@H](Cc1ccc(O)cc1)C(N)=O)[C@@H](C)O)[C@@H](C)O)[C@@H](C)O)[C@@H](C)O)[C@@H](C)O)[C@@H](C)O
IC50: 0.2 nM

Next, values leading:

IC50: 0.45 nM
B5: [N-terminal(C20 diacid-gGlu), des1, 4G, 15Q, 21Q, 23Y, 25H, 30S, 31G, 32T, 33Y]mimylin (peptide)
peptide: {C20 diacid-γGlu}-ASGLSTAALGRLSQELHELQTYPHTETGSGTY-NH2
SMILES: CC(C)C[C@H](NC(=O)CNC(=O)[C@H](CO)NC(=O)[C@H](C)NC(=O)CC[C@H](NC(=O)CCCCCCCCCCCCCCCCCCC(=O)O)C(=O)O)C(=O)N[C@@H](CO)C(=O)N[C@H](C(=O)N[C@@H](C)C(=O)N[C@@H](C)C(=O)N[C@@H](CC(C)C)C(=O)NCC(=O)N[C@@H](CCCNC(=N)N)C(=O)N[C@@H](CC(C)C)C(=O)N[C@@H](CO)C(=O)N[C@@H](CCC(N)=O)C(=O)N[C@@H](CCC(=O)O)C(=O)N[C@@H](CC(C)C)C(=O)N[C@@H](Cc1c[nH]cn1)C(=O)N[C@@H](CCC(=O)O)C(=O)N[C@@H](CC(C)C)C(=O)N[C@@H](CCC(N)=O)C(=O)N[C@H](C(=O)N[C@@H](Cc1ccc(O)cc1)C(=O)N1CCC[C@H]1C(=O)N[C@@H](Cc1c[nH]cn1)C(=O)N[C@H](C(=O)N[C@@H](CCC(=O)O)C(=O)N[C@H](C(=O)NCC(=O)N[C@@H](CO)C(=O)NCC(=O)N[C@H](C(=O)N[C@@H](Cc1ccc(O)cc1)C(N)=O)[C@@H](C)O)[C@@H](C)O)[C@@H](C)O)[C@@H](C)O)[C@@H](C)O

IC50: 0.318 nM
B6: [N-terminal(C20 diacid-gGlu), des1, 4G, 9V, 15Q, 21Q, 23Y, 30S, 31A, 32T, 33Y]mimylin (peptide)
peptide: {C20 diacid-γGlu}-ASGLSTAVLGRLSQELHELQTYPRTETGSATY-NH2
SMILES: CC(C)C[C@H](NC(=O)CNC(=O)[C@H](CO)NC(=O)[C@H](C)NC(=O)CC[C@H](NC(=O)CCCCCCCCCCCCCCCCCCC(=O)O)C(=O)O)C(=O)N[C@@H](CO)C(=O)N[C@H](C(=O)N[C@@H](C)C(=O)N[C@H](C(=O)N[C@@H](CC(C)C)C(=O)NCC(=O)N[C@@H](CCCNC(=N)N)C(=O)N[C@@H](CC(C)C)C(=O)N[C@@H](CO)C(=O)N[C@@H](CCC(N)=O)C(=O)N[C@@H](CCC(=O)O)C(=O)N[C@@H](CC(C)C)C(=O)N[C@@H](Cc1c[nH]cn1)C(=O)N[C@@H](CCC(=O)O)C(=O)N[C@@H](CC(C)C)C(=O)N[C@@H](CCC(N)=O)C(=O)N[C@H](C(=O)N[C@@H](Cc1ccc(O)cc1)C(=O)N1CCC[C@H]1C(=O)N[C@@H](CCCNC(=N)N)C(=O)N[C@H](C(=O)N[C@@H](CCC(=O)O)C(=O)N[C@H](C(=O)NCC(=O)N[C@@H](CO)C(=O)N[C@@H](C)C(=O)N[C@H](C(=O)N[C@@H](Cc1ccc(O)cc1)C(N)=O)[C@@H](C)O)[C@@H](C)O)[C@@H](C)O)[C@@H](C)O)C(C)C)[C@@H](C)O

IC50: 0.312 nM
Binder: {C20 diacid-γGlu}-ASGLSTATLGRLSQELHELQTYPRTETGSGTY-NH2 [[N-terminal(C20 diacid-gGlu), des1, 4G, 9T, 15Q, 21Q, 23Y, 30S, 31G, 32T, 33Y]mimylin]
